Columns and labels:
[1] = Stability (fragmentation) in mouse plasma at 37° C. by LC-MS; type: in vitro ADME; conditions: for apparent % desired proteoforms: Mouse Plasma 37° C., 0.5 mg/ml
Procedure: Samples were removed after 0, 7 and 14 days and stored at −80° C. until characterization. For characterization, samples were thawed at room temperature and 50 μg were incubated with 5 μg of recombinant EndoS endoglycosidase for one hour at room temperature. An immunoprecipitation slurry was generated by a 45 min incubation of 95 μL/sample of magnetic Sepharose streptavidin-coated beads with 15 μg/sample of biotinylated goat anti-Human IgG Fc capture antibody, followed by 4 washes with PBS pH 7.4 with the aid of a DynaMag™-2 magnet (Invitrogen™).
After deglycosylation, plasma-incubated samples were incubated with 95 μL of the immunoprecipitation slurry for 1.5 hrs at room temperature. Then, the slurry underwent 6 washes with PBS pH 7.4 and 2 washes with LC-MS-grade water with the aid of a DynaMag™-2 magnet (Invitrogen™). A final wash with PBS pH 7.4 was performed before elution. Protein was eluted by incubating beads with 35 μL of LC-MS grade water with 20% acetonitrile and 0.1% formic acid for one hour at room temperature. PBS samples were not immunoprecipitated.
5 μL of the eluted sample were transferred to glass inserts in LC-MS vials. For LC-MS analysis, 1 μL of sample were injected into a Waters™ BioSuite Phenyl Column, 1000 Å, 10 μm, 4.6 mm×75 mm using a Waters™ ACQUITY™ UPLC I-Class HPLC system coupled to a Waters™ Synapt™ G2-Si HDMS with a column temperature of 70 C and a flow rate of 0.3 mL/min. Mobile phases consisted of A: LC-MS grade water with 0.1% v/v formic acid, 0.025 v/v trifluoroacetic acid and 10% v/v isopropyl alcohol in, and B: acetonitrile with 0.1% v/v formic acid and 10% v/v isopropyl alcohol. The column was pre-equilibrated in 10% mobile phase B before injection. Then, a 20 min 10 to 27% mobile phase B gradient was applied, followed by a 2 min 27 to 90% mobile phase B gradient and a column wash of 2 min at 99% mobile phase B.
The column was re-equilibrated to 10% mobile phase B for 2 minutes between runs. ESI was performed in positive mode with 3 kV of capillary voltage, 120 C source temperature, 100 V sampling cone voltage, source offset of 80 V, source gas flow of 0 ml/min, desolvation temperature 500 C, cone gas flow 0 μL/Hr, desolvation gas flow […], nebuliser gas flow 6.5 bar. Data format was continuum with analyser set in sensitivity mode, with a m/z range from 500 to 7000.
Peak integration, MS deconvolution and mass assignments were performed in Protein Metrics Byos® v4.0 using a deconvolution window of 60000-160000 Da with an m/z range of 1000-4000. For all time points, the highest intensity deconvoluted mass was assigned as the reference mass of v29456. […]

[2] = target: T1, NaPi2b expressed on IGROV-1 cells (Homo sapiens, UniProt O95436); assay: Cellular binding to IGROV-1 cells by flow cytometry (Example 19); conditions: NB = no binding (apparent Kd >150 nM)
T1 construct: IGROV-1 cells express endogenous NaPi2b at a high level; endogenous in cells; host or cells: IGROV-1
T1 sequence (O95436 1-690): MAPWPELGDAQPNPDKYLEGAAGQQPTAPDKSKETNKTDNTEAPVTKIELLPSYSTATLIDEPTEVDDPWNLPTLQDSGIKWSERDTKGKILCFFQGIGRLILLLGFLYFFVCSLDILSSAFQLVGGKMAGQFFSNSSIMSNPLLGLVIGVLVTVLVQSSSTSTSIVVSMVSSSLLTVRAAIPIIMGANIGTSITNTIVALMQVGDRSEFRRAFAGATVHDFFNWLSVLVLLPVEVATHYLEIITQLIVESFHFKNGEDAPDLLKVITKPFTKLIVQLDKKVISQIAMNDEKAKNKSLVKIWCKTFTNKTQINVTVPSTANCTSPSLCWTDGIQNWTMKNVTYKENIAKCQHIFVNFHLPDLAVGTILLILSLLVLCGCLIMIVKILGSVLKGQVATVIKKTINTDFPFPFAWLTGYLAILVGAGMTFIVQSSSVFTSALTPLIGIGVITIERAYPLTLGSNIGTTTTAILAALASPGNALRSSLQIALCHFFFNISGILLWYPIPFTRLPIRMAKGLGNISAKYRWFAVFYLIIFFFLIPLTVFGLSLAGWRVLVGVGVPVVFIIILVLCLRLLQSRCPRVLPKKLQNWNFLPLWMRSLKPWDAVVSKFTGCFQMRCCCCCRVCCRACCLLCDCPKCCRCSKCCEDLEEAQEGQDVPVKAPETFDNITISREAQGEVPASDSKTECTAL
Procedure: (§1) Briefly, cells were seeded at 50,000 cells/well in conical-bottom 96-well plates and treated with test antibody for 24 hours at 4° C. to prevent internalization. Palivizumab (anti-RSV antibody, v22277) was included as a negative control. […] Following incubation, cells were washed and stained with anti-Human IgG Fc AF647 conjugate (Jackson Immuno Research Labs, West Grove, PA; Cat. No. 109-605-098) at 4° C. for 30 min. Following incubation and washing, fluorescence was detected by flow cytometry on a BD LSRFortessa™ Cell Analyzer (BD Biosciences, Franklin Lake, NJ) with 1,000 minimum events collected per well. The AF647/APC-A GeoMean (fluorescence signal geometric mean, proportional to anti-Human AF647 binding) was calculated for the live cell population using FlowJo™ Version 10.8.1 (BD Biosciences, Franklin Lake, NJ) and plotted for each test antibody using GraphPad Prism Version 9 (GraphPad Software, San Diego, CA).
(§2) The ability of the humanized antibody variants v38591 and v29456 to bind to NaPi2b expressed on cells was assessed on endogenous NaPi2b-expressing tumor cell lines IGROV-1 (ovarian adenocarcinoma) and TOV-21G (ovarian carcinoma) by flow cytometry. IGROV-1 and TOV-21G cells express endogenous NaPi2b at high and moderate levels, respectively, as described in Example 10.
(§3) Cellular binding was performed according to methods described in Example 13.

[3] = target: T2, NaPi2b expressed on TOV-21G cells (Homo sapiens, UniProt O95436); assay: Cellular binding to TOV-21G cells by flow cytometry (Example 19); conditions: NB = no binding (apparent Kd >150 nM)
T2 construct: IGROV-1 and TOV-21G cells express endogenous NaPi2b at high and moderate levels, respectively; endogenous in cells; host or cells: TOV-21G
T2 sequence (O95436 1-690): T1 sequence (O95436 1-690)
Procedure: as §1, §2, §3

- Bmax (MFI) [2]: 20,096 MFI
- Curve Hill Slope (h) [2]: 1.1
- Kd [2]: 1.28 nM
- Bmax [3]: 11,271
- Curve Hill Slope (h) [3]: 1.1
- Kd [3]: 0.6 nM
B1: v29456: humanized anti-NaPi2b IgG1/kappa antibody H1L2; VH SEQ ID NO:24, VL SEQ ID NO:29 (antibody, V domains shown)
VH: QVQLVQSGAEVKKPGASVKVSCKASGFTFTSYNVHWVRQAPGQGLEWMGAISPGNGDLSYAQKFQGRVTMTRDTSTSTVYMELSSLRSEDTAVYYCARGRTGMGAVDYWGQGTLVTVSS
VL: DVQMTQSPSSLSASVGDRVTITCRASQDVYSYLNWYQQKPGKAVKLLIYYTSRLQSGVPSRFSGSGSGTDYTLTISSLQPEDFATYYCQQYNIFPWTFGQGTKLEIK
modifications: v29452, v29456, v29460 VH (H1); v29453, v29454, v29455, v29456 VL (L2)
- fragmentation in mouse plasma, in words ([1]; 37° C., 7 and 14 days): no evidence of fragmentation
- apparent % desired proteoforms ([1]; 0 days): 99.9%
- apparent % desired proteoforms ([1]; 7 days): 100.0%
- apparent % desired proteoforms ([1]; 14 days): 98.4%

From patent US20250277030A1, “ANTI-NAPI2B ANTIBODIES AND METHODS OF USE” (Zymeworks BC Inc., priority 2022, published 2025)
